# Results from IntAct's records for PubMed 16820411.
# B1: Intercellular adhesion molecule 5 (Homo sapiens), Q9UMF0 (parent)
# chain: MPGPSPGLRRALLGLWAALGLGLFGLSAVSQEPFWADLQPRVAFVERGGSLWLNCSTNCPRPERGGLETSLRRNGTQRGLRWLARQLVDIREPETQPVCFFRCARRTLQARGLIRTFQRPDRVELMPLPPWQPVGENFTLSCRVPGAGPRASLTLTLLRGAQELIRRSFAGEPPRARGAVLTATVLARREDHGANFSCRAELDLRPHGLGLFENSSAPRELRTFSLSPDAPRLAAPRLLEVGSERPVSCTLDGLFPASEARVYLALGDQNLSPDVTLEGDAFVATATATASAEQEGARQLVCNVTLGGENRETRENVTIYSFPAPLLTLSEPSVSEGQMVTVTCAAGAQALVTLEGVPAAVPGQPAQLQLNATENDDRRSFFCDATLDVDGETLIKNRSAELRVLYAPRLDDSDCPRSWTWPEGPEQTLRCEARGNPEPSVHCARSDGGAVLALGLLGPVTRALSGTYRCKAANDQGEAVKDVTLTVEYAPALDSVGCPERITWLEGTEASLSCVAHGVPPPDVICVRSGELGAVIEGLLRVAREHAGTYRCEATNPRGSAAKNVAVTVEYGPRFEEPSCPSNWTWVEGSGRLFSCEVDGKPQPSVKCVGSGGATEGVLLPLAPPDPSPRAPRIPRVLAPGIYVCNATNRHGSVAKTVVVSAESPPEMDESTCPSHQTWLEGAEASALACAARGRPSPGVRCSREGIPWPEQQRVSREDAGTYHCVATNAHGTDSRTVTVGVEYRPVVAELAASPPGGVRPGGNFTLTCRAEAWPPAQISWRAPPGALNIGLSSNNSTLSVAGAMGSHGGEYECAATNAHGRHARRITVRVAGPWLWVAVGGAAGGAALLAAGAGLAFYVQSTACKKGEYNVQEAESSGEAVCLNGAGGGAGGAAGAEGGPEAAGGAAESPAEGEVFAIQLTSA
# Variants of: B1
# Settings: with actn1_chick ACTN1, P05094
# Chain of actn1_chick ACTN1, P05094 (P05094 whole entry): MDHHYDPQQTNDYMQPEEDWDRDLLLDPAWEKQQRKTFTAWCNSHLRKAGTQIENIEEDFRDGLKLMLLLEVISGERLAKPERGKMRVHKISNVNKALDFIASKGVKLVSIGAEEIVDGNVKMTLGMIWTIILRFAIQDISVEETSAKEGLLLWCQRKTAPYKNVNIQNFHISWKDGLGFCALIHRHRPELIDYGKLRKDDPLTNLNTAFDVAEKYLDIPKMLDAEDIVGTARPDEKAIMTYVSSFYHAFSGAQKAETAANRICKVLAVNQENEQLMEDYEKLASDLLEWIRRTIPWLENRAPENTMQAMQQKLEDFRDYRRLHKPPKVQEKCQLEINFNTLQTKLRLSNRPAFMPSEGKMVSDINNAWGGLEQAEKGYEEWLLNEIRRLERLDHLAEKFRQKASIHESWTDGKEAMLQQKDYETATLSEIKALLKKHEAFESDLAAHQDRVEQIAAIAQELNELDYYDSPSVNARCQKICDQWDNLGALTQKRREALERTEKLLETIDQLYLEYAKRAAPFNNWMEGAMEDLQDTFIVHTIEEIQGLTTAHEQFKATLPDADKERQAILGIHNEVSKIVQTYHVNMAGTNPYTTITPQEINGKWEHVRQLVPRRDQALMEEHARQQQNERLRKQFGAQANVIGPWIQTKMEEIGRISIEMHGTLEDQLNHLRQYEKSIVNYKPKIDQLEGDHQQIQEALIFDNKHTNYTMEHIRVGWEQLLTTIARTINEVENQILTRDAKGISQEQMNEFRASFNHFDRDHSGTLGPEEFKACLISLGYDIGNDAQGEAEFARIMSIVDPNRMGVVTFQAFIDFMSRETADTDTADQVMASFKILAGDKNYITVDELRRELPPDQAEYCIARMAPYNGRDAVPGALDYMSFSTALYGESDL
row,Variant,effect of a mutation on the interaction
1,K866R,decreasing interaction
2,K866A,decreasing interaction
3,K866A;K867A,disrupting interaction

# Second part, the variant after the results:
row,effect of a mutation on the interaction,Variant
1,disrupting interaction,K867A
2,decreasing interaction,K867R
